± gives the standard deviation of the averaged measurements.
test system: ATP; experiment: switch fluorescence ratio, 500 uM ATP over buffer (Cy3 cluster intensity, sum of 5 cycles each) (fold (ratio)); higher = stronger signal-on switching upon ATP binding; sequences stand for … in TCGTCGGCAGCGTCAGATGTGTATAAGAGACAGTTTTTTTTTTTTTTTTTTTTTTTTT…TC; details: aptamer strand: ATP DNA aptamer (quencher-CACCTGGGGGAGTATTGCGGAGGAAGG + anchor), 100 nM annealed; ATP concentration: 500 uM
Method in brief: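 Cy3-labelled switching-strand clusters on a modified Illumina MiSeq flow-cell were annealed to 100 nM quencher-labelled ATP aptamer, imaged in selection buffer, then imaged after 15 min with 500 uM ATP at 22 °C. Five buffer/ATP cycles ran, with NaOH stripping and re-annealing between them. The fluorescence ratio is summed target-cycle over summed buffer-cycle Cy3 intensity per cluster, averaged per switch-domain sequence. Clusters outside 100-1000 RFU were excluded.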
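Note: ATP exposure 15 min at 22 °C before imaging.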

AACCCATGCT and GTTAATGTAA are within error of each other in switch fluorescence ratio: 1.05 ± 0.064 for the first, 0.9934 ± 0.0059 for the second.

AATTTGTGGC and TTGGTATGTG are within error of each other in switch fluorescence ratio: 0.995 ± 0.034 for the first, 0.968 ± 0.017 for the second.

TAATCGACTT and GAGTGTGAAA are within error of each other in switch fluorescence ratio: 1.02 ± 0.014 for the first, 0.978 ± 0.035 for the second.

GGGAACCGGA and AAAGTAAAGT are within error of each other in switch fluorescence ratio: 1.03 ± 0.17 for the first, 1.01 ± 0.028 for the second.

AAGGACGGGG and GAAAGGAGGG are within error of each other in switch fluorescence ratio: 0.974 ± 0.011 for the first, 1.03 ± 0.065 for the second.

Compared with TACACCGTCA, GGGTCAAAGA is lower in switch fluorescence ratio: 1.08 ± 0.023 for the first, 0.9705 ± 0.0086 for the second.

GGGCTTAGAG and GGGGTGTGGG are within error of each other in switch fluorescence ratio: 1.012 ± 0.007 for the first, 1 ± 0.018 for the second.

GGTGATGATC and AGGGGGTTTG are within error of each other in switch fluorescence ratio: 1.038 ± 0.0044 for the first, 1.01 ± 0.033 for the second.

Compared with GTTGTGTCTG, TACCCGGACA is higher in switch fluorescence ratio: 0.979 ± 0.013 for the first, 1.091 ± 0.0053 for the second.

TTTTTCGTTG and TGAAAAAGTT are within error of each other in switch fluorescence ratio: 0.997 ± 0.049 for the first, 1.32 ± 0.47 for the second.

TAAGTCGGGA and CGCTTTTGGG are within error of each other in switch fluorescence ratio: 0.952 ± 0.025 for the first, 0.999 ± 0.03 for the second.

Going from AGGGATTCAT to CCGGGGGCAG, the switch fluorescence ratio rises from 1.02 ± 0.032 to 1.105 ± 0.0064.

GTTACAGTGG and GGGTGTTCGG are within error of each other in switch fluorescence ratio: 1 ± 0.061 for the first, 0.979 ± 0.017 for the second.

TTGAAGAGGT and CGTAGACGAG are within error of each other in switch fluorescence ratio: 0.976 ± 0.049 for the first, 1.03 ± 0.016 for the second.

GGGCTATAGA and GTGGGTTTGC are within error of each other in switch fluorescence ratio: 0.9984 ± 0.0095 for the first, 1.03 ± 0.03 for the second.

AAGACTTCTT and AAAGGTCTGA are within error of each other in switch fluorescence ratio: 0.98673 ± 0.00038 for the first, 0.98 ± 0.0099 for the second.

TTGTGGGGAC and TATAACGCTT are within error of each other in switch fluorescence ratio: 1 ± 0.033 for the first, 1.01 ± 0.017 for the second.

AATCCTGCGT and TAAGGGGAGT are within error of each other in switch fluorescence ratio: 1.16 ± 0.21 for the first, 1.01 ± 0.038 for the second.

GGTGGGGGGC and ATGTGGGGGT are within error of each other in switch fluorescence ratio: 0.978 ± 0.048 for the first, 0.994 ± 0.029 for the second.

TTGGAGGGTT and CGTTTGGTGG are within error of each other in switch fluorescence ratio: 0.992 ± 0.017 for the first, 1.01 ± 0.032 for the second.

CGGGCTTTAA and GTTAGGATGG are within error of each other in switch fluorescence ratio: 0.995 ± 0.026 for the first, 1.01 ± 0.044 for the second.

ATTGTACGCT and ATGAGGTTTG are within error of each other in switch fluorescence ratio: 1.015 ± 0.0056 for the first, 1.01 ± 0.019 for the second.

GGCGGGGGTC and AGTATCTTCG are within error of each other in switch fluorescence ratio: 1.01 ± 0.029 for the first, 0.9923 ± 0.0027 for the second.

TTTTGAGATG and ATTGGGGTTG are within error of each other in switch fluorescence ratio: 0.999 ± 0.024 for the first, 1 ± 0.017 for the second.

TTTTTCTAAA and AGGTAAGGGT are within error of each other in switch fluorescence ratio: 0.9834 ± 0.0074 for the first, 0.974 ± 0.035 for the second.

GAATCGTGAG and TTTTTCCTAC are within error of each other in switch fluorescence ratio: 0.999 ± 0.04 for the first, 1 ± 0.016 for the second.

AGAAAGTGGT and AGGGTCTTGC are within error of each other in switch fluorescence ratio: 0.992 ± 0.017 for the first, 0.998 ± 0.014 for the second.

TGCCAGTTCG and GGTACTGGTA are within error of each other in switch fluorescence ratio: 1.02 ± 0.025 for the first, 0.984 ± 0.057 for the second.

TATAACTTGA and TCAACCAAAA are the same in switch fluorescence ratio: 1.02 ± 0.0048 for the first, 1.02 ± 0.011 for the second.

Going from CCTGGCATGC to CTACTATAGG, the switch fluorescence ratio falls from 2.56 ± 0.24 to 0.9889 ± 0.0064.

GCGTAAAATT and TTTGGGCACT are within error of each other in switch fluorescence ratio: 0.9737 ± 0.0057 for the first, 0.996 ± 0.024 for the second.

First: GGTTGCGATC
Second: AGATGAGTGT
The switch fluorescence ratio of the first is higher: 1.08 ± 0.03 for the first, 1 ± 0.02 for the second.

First: ATGTATCACT
Second: TTCCGTTAGA
The switch fluorescence ratio of the first is lower: 0.984 ± 0.015 for the first, 1.06 ± 0.017 for the second.

Compared with GGCTGTTTTT, CATGATGTTC is higher in switch fluorescence ratio: 0.962 ± 0.034 for the first, 1.02 ± 0.021 for the second.

First: CGCTGGGGGG
Second: AGCAAATTCT
The switch fluorescence ratio of the first is lower: 1.02 ± 0.048 for the first, 1.16 ± 0.072 for the second.

ATGGAATGCG and TTGCTCTCTG are the same in switch fluorescence ratio: 1.028 ± 0.0089 for the first, 1.03 ± 0.031 for the second.

GCCTGGGGGC and CGGTATGGCT are within error of each other in switch fluorescence ratio: 0.967 ± 0.019 for the first, 0.9689 ± 0.0062 for the second.

GAGAATTAGG and ATTGACGTGT are within error of each other in switch fluorescence ratio: 0.964 ± 0.039 for the first, 1 ± 0.035 for the second.

Going from GCGTTAAGGA to ACTAGAGCGA, the switch fluorescence ratio rises from 0.9835 ± 0.0056 to 1.11 ± 0.11.

CGGTCATATT and ACTGTCTAAT are within error of each other in switch fluorescence ratio: 0.9892 ± 0.0037 for the first, 1.01 ± 0.026 for the second.

AGTTATGTTG and TGTTATAGCC are within error of each other in switch fluorescence ratio: 0.995 ± 0.021 for the first, 1.03 ± 0.04 for the second.

GAATTGTGGG and GGGCAGGGGG are within error of each other in switch fluorescence ratio: 0.989 ± 0.039 for the first, 1.01 ± 0.04 for the second.

Going from ATTGTAGAGC to TTGTTGTGTG, the switch fluorescence ratio falls from 1.02 ± 0.01 to 0.973 ± 0.033.

GGAGGAGATA and TCTTTGGGAT are within error of each other in switch fluorescence ratio: 0.995 ± 0.02 for the first, 0.962 ± 0.033 for the second.

Compared with GTCTCGGCAT, TATAAAGGGT is lower in switch fluorescence ratio: 1.2 ± 0.044 for the first, 1.02 ± 0.055 for the second.

GGGGTTCTTT and GATGGCGGTG are within error of each other in switch fluorescence ratio: 1.09 ± 0.14 for the first, 0.995 ± 0.00091 for the second.

TAACCTCGCG and GGCCCTCTGA are within error of each other in switch fluorescence ratio: 1.04 ± 0.02 for the first, 1.05 ± 0.018 for the second.

GGGGGCCGTC and ATTGAAGGGG are within error of each other in switch fluorescence ratio: 1.01 ± 0.09 for the first, 0.975 ± 0.016 for the second.

First: AAAATGGTCA
Second: AAATACGAGA
The switch fluorescence ratio of the first is lower: 1.0102 ± 0.00092 for the first, 1.06 ± 0.024 for the second.

TTAAAATGGG and CGAGGGGCTT are within error of each other in switch fluorescence ratio: 1.01 ± 0.043 for the first, 0.997 ± 0.035 for the second.

— the supplement of paper PMC10126150
